Reference: paper PMC3680417, “Phosphorylation of the Leukemic Oncoprotein EVI1 on Serine 196 Modulates DNA Binding, Transcriptional Repression and Transforming Ability”

Columns and labels:
[1] = target: GST-Evi1 ZF1-7 S196A (mouse, UniProt P14404-1 21-239, S196A); test: EMSA; EMSA as in cited ref. 6; native 5% acrylamide gel; buffer, salt, pH and temperature not stated; settings: protein: recombinant; tags: GST (N-terminal, pGEX); label: 5' IRDye
[2] = target: GST-Evi1 ZF1-7 WT (mouse, UniProt P14404-1 21-239); test: as above; settings: protein: recombinant; tags: GST (N-terminal, pGEX); label: 5' IRDye
Chain of GST-Evi1 ZF1-7 WT (P14404 211-429): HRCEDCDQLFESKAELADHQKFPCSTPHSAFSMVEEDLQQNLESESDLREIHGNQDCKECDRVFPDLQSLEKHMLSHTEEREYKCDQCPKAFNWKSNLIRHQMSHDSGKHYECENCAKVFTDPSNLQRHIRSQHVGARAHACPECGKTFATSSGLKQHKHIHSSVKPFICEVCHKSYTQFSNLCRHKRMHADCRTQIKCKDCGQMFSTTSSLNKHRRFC

Chain of GST-Evi1 ZF1-7 S196A (P14404 211-429 S386A): as the sequence (P14404 211-429) above, with S176A counted along it

B1: EVI1 ZF1-7 target EMSA probe (dsDNA)
DNA 1: ACCCATGGAGCTTTGAGCCCTGTTATCTTGTCAGGGAAGTGTACCATGGA
DNA 2: TCCATGGTACACTTCCCTGACAAGATAACAGGGCTCAAAGCTCCATGGGT
[1]
  binding result: binds
[2]
  binding result: binds
